Assay results from patent publication US20110190477A1 (published 2011).

T1: human C5a receptor (UniProt P21730 1-350)
T1 chain: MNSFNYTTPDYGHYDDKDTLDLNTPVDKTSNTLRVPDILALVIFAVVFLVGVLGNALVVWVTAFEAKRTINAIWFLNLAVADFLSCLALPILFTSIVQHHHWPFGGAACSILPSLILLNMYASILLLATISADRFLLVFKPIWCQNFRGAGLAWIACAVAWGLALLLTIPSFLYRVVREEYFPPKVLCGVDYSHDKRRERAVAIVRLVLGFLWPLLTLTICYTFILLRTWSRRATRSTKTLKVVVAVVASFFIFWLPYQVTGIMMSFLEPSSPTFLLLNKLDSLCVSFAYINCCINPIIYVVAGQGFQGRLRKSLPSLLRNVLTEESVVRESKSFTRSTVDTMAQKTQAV


How the values were obtained:
[1] = biological target: T1, human C5a receptor; assay: saturation binding to human neutrophils (flow cytometry, MFI); 4 C
[2] = biological target: T1, human C5a receptor; assay: as above

Binder	Kd [1] [nM]	EC50 [2] [nM]
humanized anti-C5aR antibody hAb-J (antibody) light: DVVMTQSPLSLPVTLGEPASISCRSSQSLVHSNGNTYLHWYLQKPGQSPQLLIYKVSNRFSGVPDRFSGSGSGTDFTLKISRVEAEDVGVYFCSQSTLVPLTFGQGTKLEIKTVAAPSVFIFPPSDEQLKSGTASVVCLLNNFYPREAKVQWKVDNALQSGNSQESVTEQDSKDSTYSLSSTLTLSKADYEKHKVYACEVTHQGLSSPVTKSFNRGEC heavy: not shown	25.4	20.1
mouse anti-C5aR monoclonal antibody 7F3 (antibody, V domains shown) VH: QVQLQQSGPELVKPGASVKISCKASGYAFSNSWMNWVKQRPGKGLEWIGRIYPGDGDTKYNGKFKGKATLTADKSSSTAYMQLSSLTSEDSAVYFCARFLLISTVTAVDYWGQGTTLTVSS VL: DVVMTQSPLSLPVSLGNQASISCRSSQSLVHSNGNTYLHWYLQKPGQSPKLLIYKVSNRFSGVPDRFSGSGSGTDFSLKISRVEAEDLGVYFCSQSTLVPLTFGAGTKLELK	9.2	8.51
humanized anti-C5aR antibody hAb-Q (antibody) light: DVVMTQSPLSLPVTLGEPASISCRSSQSLVHSNGNTYLHWYLQKPGQSPQLLIYKVSNRFSGVPDRFSGSGSGTDFTLKISRVEAEDVGVYFCSQSTLVPLTFGQGTKLEIKRTVAAPSVFIFPPSDEQLKSGTASVVCLLNNFYPREAKVQWKVDNALQSGNSQESVTEQDSKDSTYSLSSTLTLSKADYEKHKVYACEVTHQGLSSPVTKSFNRGEC heavy: not shown	22.6	21.6
